Experimental data: US20220281948A1 (published 2022)
Blank lines part the entries; values can stand above or below the binder they belong to.

What was measured:
Test in all cases: multimer staining
[1] = molecular target: T1, MAGE-A2 peptide on HLA-DPA1*01:03 / HLA-DPB1*04:01 (human)
T1 peptide: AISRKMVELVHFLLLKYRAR

[2] = molecular target: T2, MUC5AC peptide on HLA-DPA1*01:03 / HLA-DPB1*04:01 (human)
T2 peptide: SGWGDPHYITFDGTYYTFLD

[3] = molecular target: T3, LGSN peptide on HLA-DPA1*01:03 / HLA-DPB1*04:01 (human)
T3 peptide: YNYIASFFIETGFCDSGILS

[4] = molecular target: T4, HSD17B12 peptide on HLA-DPA1*01:03 / HLA-DPB1*04:01 (human)
T4 peptide: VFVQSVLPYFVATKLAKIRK

[5] = molecular target: T5, CCND1 peptide on HLA-DPA1*01:03 / HLA-DPB1*04:01 (human)
T5 peptide: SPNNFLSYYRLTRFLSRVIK

- binding result [1]: recognises
B1: 06-MAGE-A2108-127 (TCR)
alpha TRAV19*01 TRAJ40*01 CDR3: CALSVGTYKYIF
beta TRBV7-9*01 TRBJ2-5*01 CDR3: CASSPGTGGRETQYF

- binding result [1]: recognises
B2: 03-MAGE-A2108-127 (TCR)
alpha TRAV36/DV7*04 TRAJ40*01 CDR3: CAVEVNSGTYKYIF
beta TRBV2*01 TRBJ1-1*01 CDR3: CASRRDLAAFF

- binding result [2]: recognises
B3: 05-MUC5AC4922-4941 (TCR)
Valpha: QTVTQSQPEMSVQEAETVTLSCTYDTSESNYYLFWYKQPPSRQMILVIRQEAYKQQNATENRFSVNFQKAAKSFSLKISDSQLGDTAMYFCAFMKRAETSGSRLTFGEGTQLTVNP
beta TRBV6-2*01 TRBJ2-5*01 CDR3: CASSYWPTRETQYF

- binding result [3]: recognises
B4: 05-LGSN296-315 (TCR)
alpha TRAV9-2*03 TRAJ32*01 CDR3: CALSDLSYGGATNKLIF
beta TRBV27*01 TRBJ1-5*01 CDR3: CASSKGQGLGNQPQHF

- binding result [4]: recognises
B5: 05-HSD17B12225-244 (TCR)
alpha TRAV22*01 TRAJ18*01 CDR3: CAVAPYDRGSTLGRLYF
beta TRBV19*01 TRBJ2-5*01 CDR3: CASSTGQGLETQYF

- binding result [5]: recognises
B6: 03-CCND1219-238 (TCR)
alpha TRAV2*01 TRAJ21*01 CDR3: CAVCTLYNFNKFYF
beta TRBV6-5*01 TRBJ2-1*01 CDR3: CASLTDNNEQFF
